Results on one molecule are retold here after publication PMC11487180, “PAK6 rescues pathogenic LRRK2-mediated ciliogenesis and centrosomal cohesion defects in a mutation-specific manner” (Cell Death & Disease, 2024).

This experiment addresses T1, AK7 (human, UniProt Q96M32 1-723).
T1 construct: AK7, human, recombinant protein on the HuProt array; source: bought: HuProt Human Proteome Microarray v4.0, Cambridge Protein Arrays (recombinant protein spotted on the array)
Nature of the experiment: peptide or protein array; HuProt Human Proteome Microarray v4.0 (GST proteins spotted) incubated with recombinant PAK6 in 2% BSA, PBS, 0.05% Tween20 for 2 h at RT; detected with anti-PAK6 and fluorophore conjugated secondary antibody; hits by Z score > 2.5. To be noted: both partners purified.

T1 sequence (Q96M32 whole entry): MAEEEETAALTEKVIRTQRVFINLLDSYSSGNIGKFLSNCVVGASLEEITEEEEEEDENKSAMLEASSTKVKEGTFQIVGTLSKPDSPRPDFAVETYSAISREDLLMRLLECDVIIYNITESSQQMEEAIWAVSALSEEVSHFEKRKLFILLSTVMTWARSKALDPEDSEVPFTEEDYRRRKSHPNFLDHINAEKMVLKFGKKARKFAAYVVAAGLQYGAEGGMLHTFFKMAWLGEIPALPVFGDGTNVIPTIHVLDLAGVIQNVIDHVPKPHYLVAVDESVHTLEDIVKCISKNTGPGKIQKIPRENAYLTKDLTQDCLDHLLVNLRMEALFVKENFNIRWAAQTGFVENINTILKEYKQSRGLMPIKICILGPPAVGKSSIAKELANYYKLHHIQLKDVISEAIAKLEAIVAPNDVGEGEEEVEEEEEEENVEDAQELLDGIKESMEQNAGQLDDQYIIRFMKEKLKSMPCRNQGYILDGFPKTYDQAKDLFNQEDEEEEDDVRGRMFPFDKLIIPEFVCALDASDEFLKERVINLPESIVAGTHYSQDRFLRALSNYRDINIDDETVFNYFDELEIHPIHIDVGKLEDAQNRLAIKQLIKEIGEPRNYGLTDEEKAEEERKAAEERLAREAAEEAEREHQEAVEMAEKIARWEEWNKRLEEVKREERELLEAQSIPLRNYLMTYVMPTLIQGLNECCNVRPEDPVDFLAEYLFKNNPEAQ

B1: Recombinant full-length human PAK6 (ThermoFisher, #PR5307A) (enzyme, UniProt Q9NQU5 1-681, looked up)
chain: MFRKKKKKRPEISAPQNFQHRVHTSFDPKEGKFVGLPPQWQNILDTLRRPKPVVDPSRITRVQLQPMKTVVRGSAMPVDGYISGLLNDIQKLSVISSNTLRGRSPTSRRRAQSLGLLGDEHWATDPDMYLQSPQSERTDPHGLYLSCNGGTPAGHKQMPWPEPQSPRVLPNGLAAKAQSLGPAEFQGASQRCLQLGACLQSSPPGASPPTGTNRHGMKAAKHGSEEARPQSCLVGSATGRPGGEGSPSPKTRESSLKRRLFRSMFLSTAATAPPSSSKPGPPPQSKPNSSFRPPQKDNPPSLVAKAQSLPSDQPVGTFSPLTTSDTSSPQKSLRTAPATGQLPGRSSPAGSPRTWHAQISTSNLYLPQDPTVAKGALAGEDTGVVTHEQFKAALRMVVDQGDPRLLLDSYVKIGEGSTGIVCLAREKHSGRQVAVKMMDLRKQQRRELLFNEVVIMRDYQHFNVVEMYKSYLVGEELWVLMEFLQGGALTDIVSQVRLNEEQIATVCEAVLQALAYLHAQGVIHRDIKSDSILLTLDGRVKLSDFGFCAQISKDVPKRKSLVGTPYWMAPEVISRSLYATEVDIWSLGIMVIEMVDGEPPYFSDSPVQAMKRLRDSPPPKLKNSHKVSPVLRDFLERMLVRDPQERATAQELLDHPFLLQTGLPECLVPLIQLYRKQTSTC
notes: source: bought: ThermoFisher, #PR5307A
Take B1: the binding result is recorded as “binds”.
